Here are results for one protein from paper PMC7092807 (Biochemical and Biophysical Research Communications, 2004).

This series concerns the molecule itself. The experiment in a line: SEC.

B1: SARS-CoV soluble S ectodomain (Se) (domain or fragment)
chain: not shown
With B1, the “stoichiometry N” value was found to be 3.
